Key:
[1] = molecular target: T1, recombinant human TfR extracellular region with N-terminal histidine tag (Sino Biological Inc.) (human, UniProt P02786 89-760); test: BLI (Octet RED96) by the method of Example 7
T1 construct: also called r human TfR; r human TfR-ECD (Histag); not shown: Histidine tag at the N-terminus

[2] = molecular target: T2, recombinant monkey TfR extracellular region (Macaca fascicularis) with N-terminal histidine tag (Sino … (Macaca fascicularis (crab-eating …, UniProt Q5RDH6 89-760 (Pongo abelii entry)))); test: BLI (Octet RED96) by the method of Example 7
T2 construct: also called r monkey TfR; r monkey TfR-ECD (Histag); not shown: Histidine tag at the N-terminus
T2 chain: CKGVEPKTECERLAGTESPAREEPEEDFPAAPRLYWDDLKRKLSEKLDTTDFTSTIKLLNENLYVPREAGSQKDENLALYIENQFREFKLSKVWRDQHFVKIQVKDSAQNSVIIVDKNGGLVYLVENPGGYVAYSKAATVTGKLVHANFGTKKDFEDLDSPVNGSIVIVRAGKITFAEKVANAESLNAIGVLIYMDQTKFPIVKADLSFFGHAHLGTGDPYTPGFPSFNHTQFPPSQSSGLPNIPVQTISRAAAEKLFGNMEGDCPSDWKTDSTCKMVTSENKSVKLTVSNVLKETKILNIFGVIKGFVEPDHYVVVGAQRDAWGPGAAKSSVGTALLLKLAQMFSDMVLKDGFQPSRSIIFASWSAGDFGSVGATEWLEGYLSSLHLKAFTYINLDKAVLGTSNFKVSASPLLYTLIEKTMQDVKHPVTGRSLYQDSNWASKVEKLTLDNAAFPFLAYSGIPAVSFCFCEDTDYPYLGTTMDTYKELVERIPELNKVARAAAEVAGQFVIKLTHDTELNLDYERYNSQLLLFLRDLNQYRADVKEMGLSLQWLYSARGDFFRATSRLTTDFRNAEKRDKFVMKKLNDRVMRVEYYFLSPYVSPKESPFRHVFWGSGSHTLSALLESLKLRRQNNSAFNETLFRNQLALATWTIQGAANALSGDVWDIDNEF

[3] = molecular target: T1, recombinant human TfR extracellular …; test: BLI (Octet RED96), His-tagged TfR ECD loaded on Ni-NTA sensor, antibody in solution; human TfR
Procedure: (§1) Purified anti-hTfR antibody No. 3 was diluted in two steps with HBS-P+ (10 mM HEPES containing 150 mM NaCl, 50 μM EDTA and 0.05% Surfactant P20), respectively, to prepare antibody solutions of 7 different concentrations, 0.78125 to 50 nM (0.117 to 7.5 μg/mL). These antibody solutions were used as sample solutions. The r human and r monkey TfRs were respectively diluted with HBS-P+ to prepare 25 pg/mL solutions, which were used as r human TfR-ECD (Histag) solution and r monkey TfR-ECD (Histag) solution, respectively.
(§2) Each of the sample solutions prepared above by 2-fold dilution steps was added, 200 μL/well, to a 96-well plate, black (Greiner Bio-One Inc.). Each of the r human TfR-ECD (Histag) solution and the r monkey TfR-ECD (Histag) solutions prepared above was added, 200 μL/well, to predetermined wells. To respective wells for baseline, dissociation and washing were added HBS-P+, 200 μL/well. To wells for regeneration were added 10 mM Glycine-HCl (pH 1.7), 200 μL/well. To wells for activation was added 0.5 mM NiCl₂ solution, 200 μL/well. The plate and biosensor (Biosensor/Ni-NTA: ForteBio Inc., a division of Pall Corporation) were set in the prescribed positions of Octet RED96.
(§3) The measurement was performed at 25 to 30° C.

[4] = molecular target: T2, recombinant monkey TfR extracellular …; test: BLI (Octet RED96), His-tagged TfR ECD loaded on Ni-NTA sensor, antibody in solution; monkey TfR
Procedure: as §1, §2, §3

Row | Binder | Kd [1] | Kd [2] | Kd [3] | Kd [4]
1 | humanized anti-hTfR antibody No. 3 (antibody, human IgG4 S228P, kappa, V domains shown, The heavy chain is of IgG4 type; also called humanized antibody of anti-hTfR antibody No. 3) VH: EVQLVQSGAEVKKPGESLKISCKGSGYSFTNYWLGWVRQMPGKGLEWMGDIYPGGDYPTYSEKFKVQVTISADKSISTAYLQWSSLKASDTAMYYCARSGNYDEVAYWGQGTLVTVSS VL: DIVMTQTPLSLSVTPGQPASISCRSSQSLVHSNGNTYLHWYLQKPGQSPQLLIYKVSNRFSGVPDRFSGSGSGTDFTLKISRVEAEDVGVYYCSQSTHVPWTFGQGTKVEIKR | ≤ 1 pM | ~1000 pM |  | 
2 | mouse anti-hTfR antibody No. 3 (antibody, V domains shown, Mouse hybridoma antibody; also called anti-hTfR No. 3; antibody of Clone 3 line) VH: EVQLQESGAELVRPGTSVKISCKASGYTFMNYWLGWVKQRPGHGLEWIGDIYPGGDYPTYSEKFKVKAILTADTSSSSVYLHLSSLTSEDSAVYFCARSGNYDEVAYWGQGTLVTVST VL: DIVMTQTTLSLPVSLGDQASISCRSSQSLVHSNGNTYLHWYLQKPGQSPKLLIYKVSNRFSGVPDRFSGSGSGTDFTLKISRVEAEDLGVFFCSQSTHVPWTFGGGTKLEIKR |  |  | ≤ 1 pM | ≤ 1 pM

Reference: US20210038739A1 (JCR PHARMACEUTICALS, published 2021)
